Source: article PMC6048764, “Myricetin antagonizes semen-derived enhancer of viral infection (SEVI) formation and influences its infection-enhancing activity” (Retrovirology, 2018)

B1: SEM2_(86–107) (peptide, UniProt Q02383 86-107, looked up)
peptide: DLNALHKATKSKQHLGGSQQLL
notes: source: synthetic peptide (Scilight Biotechnology LLC, Beijing)
B2: SEM1_(86–107) (peptide, UniProt P04279 86-107, looked up)
peptide: DLNALHKTTKSQRHLGGSQQLL
notes: as for B1

Biological target: the molecule itself
Assay: thioflavin T fluorescence; amyloid fibril formation; peptide 3 mg/ml agitated at 1400 rpm at 37 °C for 48 h, without myricetin

| Protein | binding result |
| --- | --- |
| B1 | binds |
| RLQGGVLVNEILNHMKA (peptide, UniProt P15309 257-273, looked up, source: synthetic peptide) [PAP257–273 Arg273A] | binds |
| RAQGGVLVNEILNHMKR (peptide, UniProt P15309 257-273, looked up, source: synthetic peptide) [PAP257–273 Leu258A] | binds |
| RLAGGVLVNEILNHMKR (peptide, UniProt P15309 257-273, looked up, source: synthetic peptide) [PAP257–273 GIn259A] | binds |
| RLQGGVLVNEIANHMKR (peptide, UniProt P15309 257-273, looked up, source: synthetic peptide) [PAP257–273 Leu268A] | binds |
| B2 | binds |
